These results are taken from US20210155703A1 (Bristol-Myers Squibb, published 2021).

Usually EC50 stands for the concentration that produces a half-maximal response. By Kd is commonly meant the constant that tells how readily two partners part at equilibrium. In general, EC50 (read off the curve) refers to the concentration at which the effect is half-maximal.

For experiment [1], the target named is T1, human CD27 on human T cells (human, UniProt P26842 21-260).
T1 sequence: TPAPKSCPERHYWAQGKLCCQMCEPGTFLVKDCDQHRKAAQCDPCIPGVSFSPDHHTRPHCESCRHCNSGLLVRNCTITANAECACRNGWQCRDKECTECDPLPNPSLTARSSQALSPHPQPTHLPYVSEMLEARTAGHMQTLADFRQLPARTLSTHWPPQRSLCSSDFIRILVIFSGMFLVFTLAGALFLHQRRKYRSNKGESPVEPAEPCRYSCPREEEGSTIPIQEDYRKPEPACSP
Description: cell-based or functional assay.

Experiment [2] has as its target T1, human CD27 on human T cells. The experiment in a line: blocking assay by flow cytometry: human T cells with antibody in the presence of 10 µg/ml soluble human CD70; blocked ligand CD70 detected with labelled anti-CD70. The source says:
Binding of the Abs in the assay was detected by a labeled anti-human IgG Ab (*, ahIgG). […] Binding of the ligand blocking 1F5 Ab was not detected. […] CD70 was detected by a labeled anti-CD70 Ab (*, aCD70). […] Binding of CD70 decreased with increasing concentrations of the ligand blocking 1F5 Ab. “MFI,” “hIgG1,” and “FL2” are as described for FIG. 1. “FL1” in (B) indicates measurement in fluorescence channel 1 (FL1).
The presence or absence of binding of the Abs was detected using a labeled anti-human IgG Ab. […] See FIG. 2A, showing a schematic of the assay, and FIG. 2B, showing a graph of the results. Binding of the ligand blocking 1F5 Ab was not detected. Id. […] CD70 was detected by a labeled anti-CD70 Ab.
A general note: Flow cytometry measures light scatter and fluorescence of single cells or particles in a stream.

The target is the same in experiment [3]. Description: flow cytometry on human T cells, FIG. 1A.
Experiment [4] addresses T2, cynomolgus CD27 on cynomolgus T cells (cynomolgus monkey).
T2 construct: whole, on cells; also called cCD27
Description: flow cytometry on cynomolgus T cells, FIG. 1B.

Experiment [5] deals with T1, human CD27 on human T cells. The experiment in a line: flow cytometry on human T cells, n=5; mean of n=5.
The target in experiment [6] is T3, human CD27 (hCD27), form in the assay not stated (human, UniProt P26842 20-260, limits assumed).
T3 construct: Whole entry named
T3 sequence: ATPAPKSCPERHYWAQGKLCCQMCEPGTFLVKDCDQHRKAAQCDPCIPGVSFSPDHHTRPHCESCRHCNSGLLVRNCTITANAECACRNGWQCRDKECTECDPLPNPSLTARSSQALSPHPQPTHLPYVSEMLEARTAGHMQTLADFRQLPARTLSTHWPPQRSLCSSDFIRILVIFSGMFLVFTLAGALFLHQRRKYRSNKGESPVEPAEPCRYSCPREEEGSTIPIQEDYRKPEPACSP
The experiment in a line: Scatchard analysis; format not stated; Scatchard analysis, not SPR; antibody, format not stated.

For experiment [7], the target named is T1, human CD27 on human T cells. The experiment in a line: flow cytometry on human T cells, n=5; lowest of the n=5 determinations.
Experiment [8] has the same target. Description: flow cytometry on human T cells pretreated with 10 µg/ml human CD70; bound antibody detected with labelled anti-human IgG.
The target in experiment [9] is T2, cynomolgus CD27 on cynomolgus T cells. The experiment in a line: binding to cynomolgus T cells.
For experiment [10] the target is unchanged. The experiment in a line: estimated in vivo serum EC50 for 50% CD27 receptor occupancy in monkey whole blood, Emax model. An excerpt: Criteria for evaluation included clinical observations, hematology, PK, CD27 receptor occupancy (RO), circulating sCD27 levels, lymphocyte subset analysis, cytokine levels, and ADA determination. Blood samples were obtained prior to dosing and at various intervals up to 42 days post-dose. Overall, there were no adverse findings, including no adverse clinical observations and no changes in hematologic parameters. There were time- and dose-dependent increases in circulating sCD27 levels. […] There were no significant changes in circulating lymphocyte subsets including CD4⁺, Treg (Foxp3⁺/CD4⁺), CD8⁺ T, CD20⁺ B, and NK cells, or circulating cytokine levels.

The target in experiment [11] is T1, human CD27 on human T cells. The experiment in a line: flow cytometry on human T cells, n=5; highest of the n=5 determinations.
Experiment [12] deals with T4, hCD27-mouseFc or hCD27-Histag proteins (human, UniProt P26842 20-191).
T4 construct: not shown: mouse Fc or His tag
T4 sequence: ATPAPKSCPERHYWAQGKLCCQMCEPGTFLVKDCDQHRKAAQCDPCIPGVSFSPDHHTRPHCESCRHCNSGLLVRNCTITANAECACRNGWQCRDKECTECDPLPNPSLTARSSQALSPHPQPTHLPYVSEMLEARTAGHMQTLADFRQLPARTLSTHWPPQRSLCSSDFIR
The experiment in a line: SPR; due to an increased dissociation rate, association rate unchanged. How it is done: (§1) The measured values were 41-44 nM at 37° C. and 13-16 nM at 25° C. […] The kinetic analysis used a 1:1 fit binding model.
A general note: SPR reads the build-up and loss of mass on a sensor chip optically.

For experiment [13], the target named is T4, hCD27-mouseFc or hCD27-Histag proteins. Description: SPR at 25 C, Fab with hCD27-mouseFc or hCD27-Histag, 1:1 fit binding model; 25 C; lower end of the measured values. The procedure: as §1
For experiment [14] the target is unchanged. Description: SPR at 37 C, Fab with hCD27-mouseFc or hCD27-Histag, 1:1 fit binding model; 37 C; lower end of the measured values. How it is done: as §1

Bounds are passed on as bounds.

B1: Reference HuMAb 1F5 (human anti-hCD27 mAb, ligand blocking) (antibody, human IgG1, kappa, V domains shown)
VH: QVQLVESGGGVVQPGRSLRLSCAASGFTFSSYDMHWVRQAPGKGLEWVAVIWYDGSNKYYADSVKGRFTISRDNSKNTLYLQMNSLRAEDTAVYYCARGSGNWGFFDYWGQGTLVTVSS
VL: DIQMTQSPSSLSASVGDRVTITCRASQGISRWLAWYQQKPEKAPKSLIYAASSLQSGVPSRFSGSGSGTDFTLTISSLQPEDFATYYCQQYNTYPRTFGQGTKVEIKR
notes: also called 1F5-IgG1
For B1, in experiment [1], the “IFN-γ production of CD4+CD45RO+ memory T cells, CHO-svCD3-CD32a co-culture (EC50)” value was determined as 89 pM; the “IFN-γ secretion in FIG. 6(B), CHO-svCD3-CD32a co-culture (EC50)” value was determined as 40.2 pM; the “T cell proliferation in FIG. 6(A), CHO-svCD3-CD32a co-culture (EC50)” value turned out to be 35.7 pM; the “proliferation of CD4+CD45RO+ memory T cells, CHO-svCD3-CD32a co-culture (EC50)” value was 73 pM. For the same molecule, the “IC50 (read off the curve)” value in [2] is about 1000 pM. For the same molecule, the concentration giving a half-maximal response (EC50) in experiment [3] is 1090 pM. The molecule also gave an EC50 in experiment [4] of 1800 pM.

B2: HuMAb BMS-986215 (human IgG1 anti-human CD27 monoclonal antibody) (antibody, V domains shown)
VH: QVQLVQSGSEVKKPGASVKVSCKASGYTFTTYAMNWVRQAPGQGLEWMGWINTNTGNPTYAQGFTGRFVFSLDTSVNTAYLQISSLKAEDTAVYYCARDFGGFDYWGQGTLVTVSS
VL: AIQLTQSPSSLSASVGDRVTITCRASQGISSALAWYQQKPGKAPKLLINDASSLESGVPSRFSGSGSGTDFTLTISSLQPEDFATYYCQQFNNYPRTFGQGTKVEIKR
modifications: N-terminal glutamine to pyroglutamate; N-glycan at N297 (Table 4)
notes: Full-length human IgG1 produced in CHO cells; derived from clone 16D9
The molecule B2 gave an EC50 in experiment [5] of 44 pM. Besides, in experiment [1], the “IFN-γ production of CD4+CD45RO+ memory T cells, CHO-svCD3-CD32a co-culture (EC50)” value turned out to be 15 pM; the “IFN-γ secretion in FIG. 6(B), CHO-svCD3-CD32a co-culture (EC50)” value is 6.24 pM; the “IFN-γ secretion, CHO-svCD3-CD32a co-culture (mean EC50)” value was 7.8 pM; the “IL-2 release from SEB-stimulated PBMCs, with PD-1 blockade against without” value turned out to be 2 fold. In addition, in experiment [1], the “T cell proliferation in FIG. 6(A), CHO-svCD3-CD32a co-culture (EC50)” value came out at 4.5 pM; the “T cell proliferation, CHO-svCD3-CD32a co-culture (mean EC50)” value came out at 9 pM; the “induction of IFN-γ secretion from CD4+CD25- T cells co-cultured with B cells, 100 ng/ml SEB, antibody at 10 µg/ml” value was over 2.5 fold; the “proliferation of CD4+CD45RO+ memory T cells, CHO-svCD3-CD32a co-culture (EC50)” value turned out to be 5 pM. Besides, binding in [6] was put at a Kd of 45 pM. Moreover, the EC50 in experiment [7] lay in the range of 22 to 76 pM. Further, in experiment [8], the “EC50 (read off the curve)” value was about 100 pM. This molecule returned an EC50 in [3] of 22.1 pM. The molecule also gave a 50% effective concentration (EC50) in experiment [4] of 92 pM. The molecule also displayed an EC50 in experiment [9] of about 5 ng/mL. For the same molecule, the EC50 in experiment [10] was 80 pM. The same molecule had an EC50 in experiment [11] of 22 to 76 pM.

B3: Fab fragment of BMS-986215 (Fab, V domains shown)
VH: B2 VH
VL: AIQLTQSPSSLSASVGDRVTITCRASQGISSALAWYQQKPGKAPKLLINDASSLESGVPSRFSGSGSGTDFTLTISSLQPEDFATYYCQQFNNYPRTFGQGTKVEIK
For B3, the “fold loss of affinity from 25° C. to 37° C.” value in [12] was determined as 3 fold. Further, the Kd was in the range of 13000 to 16000 pM in [13] and 41000 to 44000 pM in [14].
